Residue numbers refer to the chain shown, from its start.
T1: human CTLA4 (soluble analyte of the Biacore assays of Reference Example 3-3) (human, UniProt P16410 36-161)
T1 construct: also called hCTLA4
T1 sequence: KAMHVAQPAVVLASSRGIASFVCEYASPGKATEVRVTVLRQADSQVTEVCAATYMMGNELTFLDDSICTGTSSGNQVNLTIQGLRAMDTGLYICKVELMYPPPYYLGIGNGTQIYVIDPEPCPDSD

T2: human FcγRIIa H extracellular domain (human, UniProt P12318 34-217)
T2 construct: extracellular domain; Made by the method of WO2014104165; also called hFcγR IIa H; FcyRIIaH
T2 sequence (looked up): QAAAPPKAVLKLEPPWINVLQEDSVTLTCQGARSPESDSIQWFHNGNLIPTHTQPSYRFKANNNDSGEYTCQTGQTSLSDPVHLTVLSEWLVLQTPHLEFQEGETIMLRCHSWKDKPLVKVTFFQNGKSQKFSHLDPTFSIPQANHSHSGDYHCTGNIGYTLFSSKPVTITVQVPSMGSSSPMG

T3: human FcγRIIb extracellular domain (human, UniProt P31994 43-217)
T3 construct: extracellular domain; Made by the method of WO2014104165; also called hFcγR IIb; FcyRIIb
T3 sequence (looked up): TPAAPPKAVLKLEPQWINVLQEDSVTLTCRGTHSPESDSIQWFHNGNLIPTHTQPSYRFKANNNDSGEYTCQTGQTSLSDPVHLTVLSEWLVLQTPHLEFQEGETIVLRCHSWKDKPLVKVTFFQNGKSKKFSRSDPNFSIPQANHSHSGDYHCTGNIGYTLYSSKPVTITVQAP

B1: 04H1389v373-G1m/04L1086-lam1 (antibody, human IgG1, lambda)
heavy: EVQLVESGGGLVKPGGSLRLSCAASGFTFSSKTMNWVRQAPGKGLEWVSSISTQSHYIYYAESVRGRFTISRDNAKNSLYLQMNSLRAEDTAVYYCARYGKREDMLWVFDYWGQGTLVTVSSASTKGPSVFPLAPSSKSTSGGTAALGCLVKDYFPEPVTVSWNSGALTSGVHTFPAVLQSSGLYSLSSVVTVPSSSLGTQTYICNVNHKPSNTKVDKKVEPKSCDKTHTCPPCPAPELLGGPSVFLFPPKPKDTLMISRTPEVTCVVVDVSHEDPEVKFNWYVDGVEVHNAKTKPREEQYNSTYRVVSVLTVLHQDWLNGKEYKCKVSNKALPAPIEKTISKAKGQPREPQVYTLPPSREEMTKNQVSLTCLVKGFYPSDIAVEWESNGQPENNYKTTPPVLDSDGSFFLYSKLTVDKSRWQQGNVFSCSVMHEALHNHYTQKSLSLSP
light: QSALTQPPSASGSPGQTVTISCDGPSTGVGDYNYVHWYQQHPGKAPKLMIYFTSKKPSGVPDRFSGSKSGNTASLTVSGLQAEDEADYFCQTYAAPLGPMFGGGTKLTVLGQPKAAPSVTLFPPSSEELQANKATLVCLISDFYPGAVTVAWKADSSPVKAGVETTTPSKQSNNKYAASSYLSLTPEQWKSHRSYSCQVTHEGSTVEKTVAPTECS
B2: 04H1637-G1m/04L1086-lam1 (antibody, human IgG1, lambda)
heavy: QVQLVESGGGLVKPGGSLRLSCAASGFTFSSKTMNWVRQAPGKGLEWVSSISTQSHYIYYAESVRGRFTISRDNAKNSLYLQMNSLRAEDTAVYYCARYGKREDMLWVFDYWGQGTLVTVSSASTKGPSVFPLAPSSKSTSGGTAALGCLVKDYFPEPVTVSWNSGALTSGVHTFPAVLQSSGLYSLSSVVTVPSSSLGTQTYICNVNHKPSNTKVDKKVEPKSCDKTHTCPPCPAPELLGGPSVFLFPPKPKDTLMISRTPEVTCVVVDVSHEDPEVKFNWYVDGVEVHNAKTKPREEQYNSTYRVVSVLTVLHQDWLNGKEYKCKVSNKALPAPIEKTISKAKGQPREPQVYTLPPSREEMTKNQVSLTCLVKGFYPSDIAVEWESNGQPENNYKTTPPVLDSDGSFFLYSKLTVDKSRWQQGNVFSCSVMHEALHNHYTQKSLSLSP
light: B1 light
B3: H240-G1d/L73-k_glycomab (antibody)
chain 1: not shown
chain 2: DIQMTQSPSSLSASVGDRVTITCRASQDIHKYIAWYQQKPGQAPRLLIQYTSTLQPGVPSRFSGSGSGTDYTFTISSLQPEDIATYYCLQYEQLRTFGGGTKVEIK
modifications: fucose-deficient (afucosylated) Fc sugar chain
B4: 04H1389-G1m/04L1305-k0MT (antibody, human IgG1, kappa)
heavy: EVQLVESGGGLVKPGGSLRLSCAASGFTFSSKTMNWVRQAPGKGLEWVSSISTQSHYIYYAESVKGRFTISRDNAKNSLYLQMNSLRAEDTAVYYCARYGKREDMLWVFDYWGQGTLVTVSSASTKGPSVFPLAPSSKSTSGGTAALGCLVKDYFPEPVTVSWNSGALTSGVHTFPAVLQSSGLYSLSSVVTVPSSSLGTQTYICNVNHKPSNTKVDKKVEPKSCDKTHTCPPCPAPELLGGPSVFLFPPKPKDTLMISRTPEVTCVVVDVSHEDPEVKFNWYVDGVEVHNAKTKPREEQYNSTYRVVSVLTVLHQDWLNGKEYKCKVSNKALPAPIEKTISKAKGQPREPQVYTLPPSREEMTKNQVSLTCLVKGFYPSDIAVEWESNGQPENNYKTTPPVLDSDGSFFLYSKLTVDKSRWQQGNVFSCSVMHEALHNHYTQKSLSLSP
light: DIVMTQSPLSLPVTPGEPASISCDGPSTGVGDYNYVHWYQQKPGQAPRLLIYFTSKKPSGVPDRFSGSGSGTDFTLKISRVEAEDVGVYYCQTYAAPLGPMFGQGTKLEIKRTVAAPSVFIFPPSDEQLKSGTASVVCLLNNFYPREAKVQWKVDNALQSGNSQESVTEQDSKDSTYSLSSTLTLSKADYEKHKVYACEVTHQGLSSPVTKSFNRGEC
notes: Human IgG1 (G1m), human kappa
B5: 04H1208-G1m/04L1407-k0MT (antibody, human IgG1, kappa, V domains shown)
VH: EVQLVESGGGLVKPGGSLRLSCAASGFTFSSKTMNWVRQAPGKGLEWVSSISTRSGYIYYARSVKGRFTISRDNAKNSLYLQMNSLRAEDTAVYYCARYGKREDMLWVFDYWGQGTLVTVSS
VL: DIVMTQSPLSLPVTPGEPASISCDGPSTDVGDYNWVHWYQQKPGQAPRLLIYYTSSKPEGVPDRFSGSGSGTDFTLKISRVEAEDVGVYYCQTYAAPLGPTFGQGTKLEIKR
B6: 04H1389-G1m/04L1086-lam1 (antibody, human IgG1, lambda, V domains shown)
VH: B5 VH with R54Q, G56H, R62E
VL: QSALTQPPSASGSPGQTVTISCDGPSTGVGDYNYVHWYQQHPGKAPKLMIYFTSKKPSGVPDRFSGSKSGNTASLTVSGLQAEDEADYFCQTYAAPLGPMFGGGTKLTVLG
notes: Human IgG1 (G1m), human lambda

Key:
[1] = target: T1, human CTLA4 (soluble analyte of the …); test: SPR Biacore T200
[2] = target: T2, human FcγRIIa H extracellular domain; test: SPR; KD of G1d divided by KD of this antibody
[3] = target: T3, human FcγRIIb extracellular domain; test: SPR; KD of G1d divided by KD of this antibody
[4] = target: T3, human FcγRIIb extracellular domain; test: SPR (Biacore 8K+), captured antibody, steady state affinity model
[5] = target: T2, human FcγRIIa H extracellular domain; test: SPR (Biacore 8K+), captured antibody, 1:1 Langmuir model
[6] = target: T4, human CTLA4 (hCTLA4-His-BAP: human CTLA4 extracellular region with C-terminal His-tag and BAP-tag) (human); test: SPR (Biacore T200, 37C), antibody captured, human CTLA4 at 1000 nM, no ATP
T4 construct: This tie is an inference

[7] = target: T4, human CTLA4 (hCTLA4-His-BAP: human …); test: SPR (Biacore T200, 37C), antibody captured, human CTLA4 at 1000 nM, ATP 10 uM
[8] = target: T4, human CTLA4 (hCTLA4-His-BAP: human …); test: SPR (Biacore T200, 37C), antibody captured, human CTLA4 at 1000 nM, ATP 1 uM
[9] = target: T4, human CTLA4 (hCTLA4-His-BAP: human …); test: SPR (Biacore T200, 37C), antibody captured, human CTLA4 at 1000 nM, ATP 100 uM
mCTLA4-His = target: T5, mCTLA4-His (mouse, UniProt P09793 36-161); test: SPR Biacore T200, 100 uM ATP
T5 construct: Mouse CTLA4 extracellular region linked with a His-tag; also called mouse CTLA4; Mouse CTLA4

| binding result [1] | Binding to Human CTLA4 (binding amount per unit amount of antibody) [6] | Binding to Human CTLA4 (binding amount per unit amount of antibody) [7] | Binding to Human CTLA4 (binding amount per unit amount of antibody) [8] | Binding to Human CTLA4 (binding amount per unit amount of antibody) [9] | further results | Binder |
| --- | --- | --- | --- | --- | --- | --- |
| binds |  |  |  |  |  | B1 |
| binds |  |  |  |  |  | B2 |
|  |  |  |  |  | Relative value to KD between G1d and hFcgRs [2]: 1.1; Relative value to KD between G1d and hFcgRs [3]: 1.8; Kd [4]: 5.65 µM; Kd [5]: 0.999 µM | B3 |
|  | 0.03 | 0.154 | 0.12 | 0.151 |  | B4 |
|  |  |  |  |  | fold weaker binding to mouse CTLA4 than to human CTLA4 (mCTLA4-His): ~2 fold | B5 |
|  | 0.022 | 0.189 | 0.138 | 0.193 |  | B6 |

From patent EP4361176A1 (CHUGAI SEIYAKU KABUSHIKI KAISHA, dated 2024)
